Source: patent US11732029B2, “Methods and compositions for the treatment of wounds” (The University of Chicago, priority 2017, dated 2023)

What was measured:
CXCL-11 = target: T1, CXCL-11 (Homo sapiens, UniProt O14625); assay: vWF binding to recombinant GFs (ELISA); conditions: VEGF-A121 signal as baseline
T1 construct: All growth factors (GFs) and chemokines were purchased in their mature forms; purchased PeproTech; host or cells: Escherichia coli
T1 sequence (O14625 22-94): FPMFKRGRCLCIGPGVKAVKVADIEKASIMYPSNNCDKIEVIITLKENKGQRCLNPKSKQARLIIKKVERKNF
Description: (§1) ELISA tests were performed as previously reported1. In brief, ELISA plates (med-binding, Greiner Bio-One) were coated with 50 nM GFs at 37° C. for 2 hrs. After blocking with 2% BSA solution containing PBS-T, 1 μg/mL of plasma-derived vWF (EMD Millipore) was added. Bound vWF was detected with 1 μg/mL of rabbit anti-human vWF antibody (Sino Biological). Then, HRP conjugated goat anti-rabbit antibody (Jackson ImmunoResearch) was added. After 60 min of incubation, 50 μL TMB substrate (Sigma-Aldrich) was added. The reaction was stopped by adding 25 μL of 2N H2SO4. Subsequently, the absorbance at 450 nm was measured and subtracted the absorbance at 570 nm.

PDGF-BB = target: T2, PDGF-BB (Homo sapiens, UniProt P01127); assay: vWF binding to recombinant GFs (ELISA); conditions: VEGF-A121 signal as baseline
T2 construct: All growth factors (GFs) and chemokines were purchased in their mature forms; purchased PeproTech; host or cells: Escherichia coli
Description: as §1

IGF-II = target: T3, IGF-II (Homo sapiens, UniProt P01344); assay: vWF binding to recombinant GFs (ELISA); conditions: VEGF-A121 signal as baseline
T3 construct: All GFs and chemokines were purchased in their mature forms; purchased PeproTech; host or cells: Escherichia coli
Description: as §1

FGF-7 = target: T4, FGF-7 (Homo sapiens, UniProt P21781); assay: vWF binding to recombinant GFs (ELISA); conditions: VEGF-A121 signal as baseline
T4 construct: All GFs and chemokines were purchased in their mature forms; purchased PeproTech; host or cells: Escherichia coli
T4 sequence (P21781 32-194): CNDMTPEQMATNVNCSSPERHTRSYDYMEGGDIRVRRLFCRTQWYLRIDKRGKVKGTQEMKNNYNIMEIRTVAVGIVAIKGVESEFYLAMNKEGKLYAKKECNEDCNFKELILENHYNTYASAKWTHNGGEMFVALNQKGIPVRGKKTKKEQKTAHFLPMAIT
Description: as §1

CXCL-12γ = target: T5, CXCL-12γ (Homo sapiens, UniProt P48061); assay: vWF binding to recombinant GFs (ELISA); conditions: VEGF-A121 signal as baseline
T5 construct: All GFs and chemokines were purchased in their mature forms; purchased R & D Systems; host or cells: Escherichia coli
Description: as §1

EGF = target: T6, EGF (Homo sapiens, UniProt P01133); assay: vWF binding to recombinant GFs (ELISA); conditions: VEGF-A121 signal as baseline
T6 construct: All GFs and chemokines were purchased in their mature forms; purchased PeproTech; host or cells: Escherichia coli
Description: as §1

TGF-β3 = target: T7, TGF-β3 (Homo sapiens, UniProt P10600); assay: vWF binding to recombinant GFs (ELISA); conditions: VEGF-A121 signal as baseline
T7 construct: All GFs and chemokines were purchased in their mature forms; purchased PeproTech; host or cells: eukaryotic cells (not specified)
T7 sequence (P10600 301-412 limits assumed): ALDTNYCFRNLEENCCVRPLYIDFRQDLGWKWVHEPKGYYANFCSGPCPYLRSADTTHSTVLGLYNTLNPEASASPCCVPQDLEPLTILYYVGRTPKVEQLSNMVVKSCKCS
Description: as §1

PDGF-AA = target: T8, PDGF-AA (Homo sapiens, UniProt P04085); assay: vWF binding to recombinant GFs (ELISA); conditions: VEGF-A121 signal as baseline
T8 construct: All GFs and chemokines were purchased in their mature forms; purchased PeproTech; host or cells: Escherichia coli
Description: as §1

CXCL-12α = target: T9, CXCL-12α (Homo sapiens, UniProt P48061); assay: vWF binding to recombinant GFs (ELISA); conditions: VEGF-A121 signal as baseline
T9 construct: All GFs and chemokines were purchased in their mature forms; purchased PeproTech; host or cells: Escherichia coli
Description: as §1

VEGF-A165 [1] = target: T10, VEGF-A165 (Homo sapiens, UniProt P15692); assay: vWF binding to recombinant GFs (ELISA); conditions: VEGF-A121 signal as baseline
T10 construct: All growth factors (GFs) and chemokines were purchased in their mature forms; purchased PeproTech; host or cells: Escherichia coli
T10 sequence (P15692 27-191 isoform P15692-4 limits assumed): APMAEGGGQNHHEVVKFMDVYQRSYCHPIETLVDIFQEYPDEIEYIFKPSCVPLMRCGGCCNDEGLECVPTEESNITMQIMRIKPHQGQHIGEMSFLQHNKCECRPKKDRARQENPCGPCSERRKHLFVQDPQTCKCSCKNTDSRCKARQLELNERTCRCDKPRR
Description: as §1

BMP-7 = target: T11, BMP-7 (Homo sapiens, UniProt P18075); assay: vWF binding to recombinant GFs (ELISA); conditions: VEGF-A121 signal as baseline
T11 construct: All GFs and chemokines were purchased in their mature forms; purchased PeproTech; host or cells: eukaryotic cells (not further specified)
T11 sequence (P18075 293-431): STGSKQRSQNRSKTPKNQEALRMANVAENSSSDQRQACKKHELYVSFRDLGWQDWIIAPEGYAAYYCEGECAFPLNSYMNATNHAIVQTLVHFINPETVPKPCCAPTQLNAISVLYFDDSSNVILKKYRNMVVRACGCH
Description: as §1

TGF-β1 = target: T12, TGF-β1 (Homo sapiens, UniProt P01137); assay: vWF binding to recombinant GFs (ELISA); conditions: VEGF-A121 signal as baseline
T12 construct: All GFs and chemokines were purchased in their mature forms; purchased PeproTech; host or cells: eukaryotic cells (not specified)
Description: as §1

β-NGF = target: T13, β-NGF (Homo sapiens, UniProt P01138); assay: vWF binding to recombinant GFs (ELISA); conditions: VEGF-A121 signal as baseline
T13 construct: All GFs and chemokines were purchased in their mature forms; purchased PeproTech; host or cells: Escherichia coli
Description: as §1

PDGF-CC = target: T14, PDGF-CC (Homo sapiens, UniProt Q9NRA1); assay: vWF binding to recombinant GFs (ELISA); conditions: VEGF-A121 signal as baseline
T14 construct: All GFs and chemokines were purchased in their mature forms; purchased PeproTech; host or cells: Escherichia coli
Description: as §1

IGF-I = target: T15, IGF-I (Homo sapiens, UniProt P05019); assay: vWF binding to recombinant GFs (ELISA); conditions: VEGF-A121 signal as baseline
T15 construct: All GFs and chemokines were purchased in their mature forms; purchased PeproTech; host or cells: Escherichia coli
Description: as §1

VEGF-A145 = target: T16, VEGF-A145 (Homo sapiens, UniProt P15692); assay: vWF binding to recombinant VEGF-A isoforms (ELISA); conditions: plate coated with 50 nM vWF domains, 1 μg/mL VEGF-A, vs BSA
T16 construct: All GFs and chemokines were purchased in their mature forms; purchased R & D Systems
T16 sequence (P15692 27-171 isoform P15692-6 limits assumed): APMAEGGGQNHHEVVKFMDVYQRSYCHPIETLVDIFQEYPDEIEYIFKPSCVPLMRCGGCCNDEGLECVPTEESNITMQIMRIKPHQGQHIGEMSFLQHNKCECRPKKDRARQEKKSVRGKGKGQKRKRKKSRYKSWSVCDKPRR
Description: (§2) ELISA was performed as previously reported1. In brief, ELISA plates (med binding: Greiner Bio-One) were coated with 50 nM BSA (GE Healthcare), pro-peptide containing recombinant vWF (Sino Biological), plasma-derived vWF (EMD Millipore), recombinant human vWF A1 domain (U-Protein Express), recombinant human vWF A2 domain (R & D systems), recombinant human vWF A3 domain (U-Protein Express), vWF A1 HBD peptide or scrambled/mutated HBD peptide (all peptides were synthesized by Genscript). After blocking with 2% BSA solution containing PBS-T, 1 μg/mL of recombinant human VEGF-A121 (PeproTech), recombinant human VEGF-A145 (R & D Systems), or recombinant human VEGF-A165 (PeproTech) was added. Bound VEGF-A was detected with 1 μg/mL of mouse anti-human VEGF-A antibody (clone: 26503, R & D systems). After 60 min of incubation, horseradish peroxidase (HRP) conjugated goat anti-mouse antibody (1:2000 dilution, Dako) was added and incubated for another 60 min. Color development and the absorbance measurement were done as described above.

VEGF-A165 [2] = target: T10, VEGF-A165; assay: vWF binding to recombinant VEGF-A isoforms (ELISA); conditions: plate coated with 50 nM vWF domains, 1 μg/mL VEGF-A, vs BSA
Description: as §2

T5 sequence (P48061 22-119 isoform P48061-3): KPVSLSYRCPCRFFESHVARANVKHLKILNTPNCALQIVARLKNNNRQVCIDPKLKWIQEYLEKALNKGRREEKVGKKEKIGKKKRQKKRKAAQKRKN
T14 sequence (Q9NRA1 235-345 limits assumed): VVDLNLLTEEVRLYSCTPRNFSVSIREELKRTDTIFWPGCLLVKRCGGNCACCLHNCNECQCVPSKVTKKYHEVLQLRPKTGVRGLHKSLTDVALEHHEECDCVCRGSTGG
T9 sequence (P48061 22-89 limits assumed): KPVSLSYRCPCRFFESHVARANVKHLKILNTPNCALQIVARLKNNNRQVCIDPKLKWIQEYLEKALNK
T6 sequence (P01133 971-1023 limits assumed): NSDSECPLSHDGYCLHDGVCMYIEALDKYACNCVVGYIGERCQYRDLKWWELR
T2 sequence (P01127 82-190 limits assumed): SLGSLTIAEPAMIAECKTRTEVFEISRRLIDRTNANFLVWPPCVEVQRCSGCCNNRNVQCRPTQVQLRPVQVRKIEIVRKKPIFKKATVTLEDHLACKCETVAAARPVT
T13 sequence (P01138 122-241, species assumed): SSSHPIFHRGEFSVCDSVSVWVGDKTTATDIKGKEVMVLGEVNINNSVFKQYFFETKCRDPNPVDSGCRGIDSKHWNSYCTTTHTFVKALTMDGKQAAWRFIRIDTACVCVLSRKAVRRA
T12 sequence (P01137 279-390 limits assumed, species assumed): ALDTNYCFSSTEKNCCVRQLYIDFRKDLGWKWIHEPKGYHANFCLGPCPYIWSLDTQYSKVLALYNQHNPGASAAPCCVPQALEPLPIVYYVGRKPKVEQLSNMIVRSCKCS

| Substance | vWF binding to CXCL-11 (CXCL-11) | vWF binding to PDGF-BB (PDGF-BB) | vWF binding to IGF-II (IGF-II) | vWF binding to FGF-7 (FGF-7) | vWF binding to CXCL-12γ (CXCL-12γ) | vWF binding to EGF (EGF) | vWF binding to TGF-β3 (TGF-β3) | vWF binding to PDGF-AA (PDGF-AA) | vWF binding to CXCL-12α (CXCL-12α) | vWF binding to VEGF-A165 (VEGF-A165 [1]) | vWF binding to BMP-7 (BMP-7) | vWF binding to TGF-β1 (TGF-β1) | vWF binding to β-NGF (β-NGF) | vWF binding to PDGF-CC (PDGF-CC) | vWF binding to IGF-I (IGF-I) | binding to VEGF-A145 (VEGF-A145) | binding to VEGF-A165 (VEGF-A165 [2]) |
| --- | --- | --- | --- | --- | --- | --- | --- | --- | --- | --- | --- | --- | --- | --- | --- | --- | --- |
| vWF: human plasma-derived von Willebrand factor (EMD Millipore) | bound | bound | Neither insulin-like growth factor-I (IGF-I) nor IGF-II bound | bound | strong binding signal | did not show binding | not | bound | did not | bound | not | strong binding | relevant binding | bound | Neither insulin-like growth factor-I (IGF-I) nor IGF-II bound | bound | bind |
| YIGLKDRKRPSELRRIASQVKYAC [vWF HBD] |  |  |  |  |  |  |  |  |  |  |  |  |  |  |  | able to bind | able to bind |
